Measurements reported in PMC9972320.

Key:
MSI1 RRM12 = MSI1 RRM12 (human, UniProt O43347 20-191); assay: ITC; 3 mM MgCl2; ITC: 20 mM HEPES pH 7.5, 150 mM NaCl, 3 mM MgCl2, 25 C; […]; conditions: protein: recombinant, tags: GST tag (pGEX-6p-1) removed by PreScission
MSI1 RRM12 F63A/F65A = MSI1 RRM12 F63A/F65A (human, UniProt O43347 20-191, F63A;F65A); assay: ITC; not impaired; 3 mM MgCl2; ITC: 20 mM HEPES pH 7.5, 150 mM NaCl, 3 mM MgCl2, 25 C; 30 uM RNA in cell, 600 uM protein titrant; conditions: protein: recombinant; tags: GST tag removed by PreScission; three-way junction with P4 and pseudoknots
Chain of MSI1 RRM12 F63A/F65A (O43347 20-191 F63A/F65A): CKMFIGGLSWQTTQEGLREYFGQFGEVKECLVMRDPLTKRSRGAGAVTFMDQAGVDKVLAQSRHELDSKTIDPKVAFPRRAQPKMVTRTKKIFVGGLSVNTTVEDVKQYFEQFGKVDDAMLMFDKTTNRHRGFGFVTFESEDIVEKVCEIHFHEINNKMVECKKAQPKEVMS

MSI1 RRM12 K21A/F23A = MSI1 RRM12 K21A/F23A (human, UniProt O43347 20-191, K21A;F23A); assay: as above; conditions: protein: recombinant; tags: GST tag removed by PreScission; three-way junction with P4 and pseudoknots
Chain of MSI1 RRM12 K21A/F23A (O43347 20-191 K21A/F23A): as the sequence (O43347 20-191 F63A/F65A) above, with K2A, F4A, A44F, A46F counted along it

Chain of MSI1 RRM12 (O43347 20-191): as the sequence (O43347 20-191 F63A/F65A) above, with A44F, A46F counted along it

B1: DENV4 xrRNA mutant (DxM) (structured_RNA)
RNA: UGUAGUCAGGCCGAGAACGCCACGGUUUGAGCAAACCGUGCUGCCUGUAGCUCCGCCAAUAAUGGGAGGCG
- Kd (MSI1 RRM12; folded): 2540 ± 310 nM

B2: ZIKV xrRNA2 P2M/P4M (structured_RNA)
RNA: GAUAGUCAGGCCCGAAAGGCCAUGGCACGGAAGAAGCCAUGCUGCCUGUGAGCCCCUCCCGAAAGGGAGU
- binding result (MSI1 RRM12; folded): no binding

B3: DENV4 xrRNA (structured_RNA)
RNA: UGAAGUCAGGCCACUUGUGCCACGGUUUGAGCAAACCGUGCUGCCUGUAGCUCCGCCAAUAAUGGGAGGCG
- binding result (MSI1 RRM12; folded): no binding

B4: ZIKV xrRNA2 (structured_RNA)
RNA: GAUAGUCAGGCCGAGAACGCCAUGGCACGGAAGAAGCCAUGCUGCCUGUGAGCCCCUCAGAGGACACUGAGU
- Kd (MSI1 RRM12; three-way junction with P4 and pseudoknots): 1900 ± 800 nM
- binding result (MSI1 RRM12 F63A/F65A): binds
- binding result (MSI1 RRM12 K21A/F23A): binds
